Reference: paper doi:10.1101/2025.06.02.656870

Target: chicken IgY (chicken)
Test: BLI; Octet SAX biosensors, as described previously (ref. 10); kinetic 1:1 model, global fits over multiple Fab concentrations

chicken IgY (chicken), sequence (main, as listed by the source): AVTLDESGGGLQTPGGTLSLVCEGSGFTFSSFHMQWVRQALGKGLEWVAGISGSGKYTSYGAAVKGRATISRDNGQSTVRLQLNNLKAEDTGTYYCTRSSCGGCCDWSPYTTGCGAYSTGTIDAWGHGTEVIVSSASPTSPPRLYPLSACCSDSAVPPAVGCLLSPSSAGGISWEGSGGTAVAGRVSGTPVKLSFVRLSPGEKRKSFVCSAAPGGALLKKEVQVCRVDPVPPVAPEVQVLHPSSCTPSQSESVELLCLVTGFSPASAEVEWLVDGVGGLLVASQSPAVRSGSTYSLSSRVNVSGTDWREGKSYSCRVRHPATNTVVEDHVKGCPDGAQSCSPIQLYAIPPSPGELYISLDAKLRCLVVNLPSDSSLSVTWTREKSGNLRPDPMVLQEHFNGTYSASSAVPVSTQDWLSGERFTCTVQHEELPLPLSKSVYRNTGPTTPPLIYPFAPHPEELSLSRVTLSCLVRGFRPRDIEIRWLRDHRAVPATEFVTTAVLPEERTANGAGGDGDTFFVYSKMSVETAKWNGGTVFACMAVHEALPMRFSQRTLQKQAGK

Kd: 0.062 nM
B1: 2.1^hi Fab (D28HA, K49HR, S64HG, A40LG, Y42LF, A52LS, Q105LH, N108LY) (Fab, V domains shown)
VH: EVQLQESGPSLVKPSQTLSLTCSVTGASITSGYWNWIRKFPGNRLEYMGYISYSGGTYYNPSLKSRISITRDTSKNQYYLQLNSVTTEDTATYYCARDFDVWGAGTTVTVSS
VL: DIVMTQSQKFMSTSVGDRVSVTCKASQNVGTNVGWFQQKPGQSPKSLIYSASYRYSGVPDRFTGSGSGTDFTLTISNVQSEDLAEYFCHQYYSYPLTFGSGTKLEIK
